Columns and labels:
[1] = molecular target: Syndetin (endogenous, human cells) (human (endogenous in H4 and HeLa)) (UniProt Q96JG6); experiment: sedimentation velocity on glycerol gradients + SEC
[2] = molecular target: T1, Syndetin (endogenous, human cells) (human (endogenous in H4 and HeLa), UniProt Q96JG6-1 1-964); experiment: sedimentation velocity on glycerol gradients + SEC
T1 sequence: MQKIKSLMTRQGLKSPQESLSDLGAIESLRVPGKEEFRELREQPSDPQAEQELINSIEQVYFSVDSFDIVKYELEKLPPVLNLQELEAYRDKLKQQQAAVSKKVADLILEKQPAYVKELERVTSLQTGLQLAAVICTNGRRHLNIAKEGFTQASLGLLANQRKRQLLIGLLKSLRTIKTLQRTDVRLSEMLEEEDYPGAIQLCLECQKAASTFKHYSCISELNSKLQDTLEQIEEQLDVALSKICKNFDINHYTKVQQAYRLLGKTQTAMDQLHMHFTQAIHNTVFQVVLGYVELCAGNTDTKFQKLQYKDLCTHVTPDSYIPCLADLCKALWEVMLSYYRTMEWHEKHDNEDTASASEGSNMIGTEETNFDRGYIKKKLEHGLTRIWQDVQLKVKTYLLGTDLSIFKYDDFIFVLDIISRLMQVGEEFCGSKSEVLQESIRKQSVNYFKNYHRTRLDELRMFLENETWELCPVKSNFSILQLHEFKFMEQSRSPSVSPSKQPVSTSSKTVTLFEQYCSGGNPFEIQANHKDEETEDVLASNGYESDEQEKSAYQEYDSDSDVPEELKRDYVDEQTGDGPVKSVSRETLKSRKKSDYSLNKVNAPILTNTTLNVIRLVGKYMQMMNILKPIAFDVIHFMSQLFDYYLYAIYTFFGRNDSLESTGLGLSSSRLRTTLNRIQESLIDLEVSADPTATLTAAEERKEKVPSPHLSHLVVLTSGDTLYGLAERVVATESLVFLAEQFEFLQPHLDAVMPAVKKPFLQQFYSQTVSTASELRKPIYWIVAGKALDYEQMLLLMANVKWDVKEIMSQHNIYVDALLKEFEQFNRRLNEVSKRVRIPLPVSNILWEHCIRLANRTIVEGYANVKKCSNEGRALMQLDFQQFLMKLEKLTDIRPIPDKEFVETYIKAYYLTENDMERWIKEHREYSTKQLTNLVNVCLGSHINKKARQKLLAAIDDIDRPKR

Q: With “Vps53 (endogenous, human cells) (from UniProt Q5VIR6 1-832) (natural protein)” as the molecule, how does the stoichiometry N [1] read?
A: 1

B1: Vps52 (endogenous, human cells) (natural protein)
chain: MAAAATMAAAARELVLRAGTSDMEEEEGPLAGGPGLQEPLQLGELDITSDEFILDEVDVHIQANLEDELVKEALKTGVDLRHYSKQVELELQQIEQKSIRDYIQESENIASLHNQITACDAVLERMEQMLGAFQSDLSSISSEIRTLQEQSGAMNIRLRNRQAVRGKLGELVDGLVVPSALVTAILEAPVTEPRFLEQLQELDAKAAAVREQEARGTAACADVRGVLDRLRVKAVTKIREFILQKIYSFRKPMTNYQIPQTALLKYRFFYQFLLGNERATAKEIRDEYVETLSKIYLSYYRSYLGRLMKVQYEEVAEKDDLMGVEDTAKKGFFSKPSLRSRNTIFTLGTRGSVISPTELEAPILVPHTAQRGEQRYPFEALFRSQHYALLDNSCREYLFICEFFVVSGPAAHDLFHAVMGRTLSMTLKHLDSYLADCYDAIAVFLCIHIVLRFRNIAAKRDVPALDRYWEQVLALLWPRFELILEMNVQSVRSTDPQRLGGLDTRPHYITRRYAEFSSALVSINQTIPNERTMQLLGQLQVEVENFVLRVAAEFSSRKEQLVFLINNYDMMLGVLMERAADDSKEVESFQQLLNARTQEFIEELLSPPFGGLVAFVKEAEALIERGQAERLRGEEARVTQLIRGFGSSWKSSVESLSQDVMRSFTNFRNGTSIIQGALTQLIQLYHRFHRVLSQPQLRALPARAELINIHHLMVELKKHKPNF
Q: How did the “stoichiometry N” value [2] turn out when B1 was run?
A: 1

B2: Ang2 (endogenous, human cells) (natural protein)
chain: MAAAAAAGPSPGSGPGDSPEGPEGEAPERRRKAHGMLKLYYGLSEGEAAGRPAGPDPLDPTDLNGAHFDPEVYLDKLRRECPLAQLMDSETDMVRQIRALDSDMQTLVYENYNKFISATDTIRKMKNDFRKMEDEMDRLATNMAVITDFSARISATLQDRHERITKLAGVHALLRKLQFLFELPSRLTKCVELGAYGQAVRYQGRAQAVLQQYQHLPSFRAIQDDCQVITARLAQQLRQRFREGGSGAPEQAECVELLLALGEPAEELCEEFLAHARGRLEKELRNLEAELGPSPPAPDVLEFTDHGGSGFVGGLCQVAAAYQELFAAQGPAGAEKLAAFARQLGSRYFALVERRLAQEQGGGDNSLLVRALDRFHRRLRAPGALLAAAGLADAATEIVERVARERLGHHLQGLRAAFLGCLTDVRQALAAPRVAGKEGPGLAELLANVASSILSHIKASLAAVHLFTAKEVSFSNKPYFRGEFCSQGVREGLIVGFVHSMCQTAQSFCDSPGEKGGATPPALLLLLSRLCLDYETATISYILTLTDEQFLVQDQFPVTPVSTLCAEARETARRLLTHYVKVQGLVISQMLRKSVETRDWLSTLEPRNVRAVMKRVVEDTTAIDVQVGLLYEEGVRKAQSSDSSKRTFSVYSSSRQQGRYAPSYTPSAPMDTNLLSNIQKLFSERIDVFSPVEFNKVSVLTGIIKISLKTLLECVRLRTFGRFGLQQVQVDCHFLQLYLWRFVADEELVHLLLDEVVASAALRCPDPVPMEPSVVEVICERG
Q: How did the “stoichiometry N” value [2] turn out when B2 was run?
A: 1
